The record followed here is patent publication US20110262366A1.

Starred links: 1 amine or outer side, 2 acyl side, 3 side chain; linkers in the order of their positions; H or OH if unused. Positions of bridges follow the written chain, without caps; N, C: chain ends. Primed or numbered codes have the meaning given here. No end group written: not given here. DPPE′ = dipalmitoylphosphatidylethanolamine; Glutaryl = O=C(CCCC(=O)[*:2])[*:1]

Test [1] concerns the target endothelial cell receptor on HAEC (human aortic endothelial cells). Put plainly: TKPPR-beads perfused over HAEC in a parallel plate flow cell, 1.53 dynes/cm^2.
Test [2] shares this target. Put plainly: conjugated fluorescent beads on confluent HAEC, static 30 min, image analysis (Example 2, experiment 1).
The next test has as its target VEGF receptors on HUVECs. Description: competition with ^125I-VEGF on HUVECs.
Test [3] concerns the target endothelial cell receptor on HAEC (human aortic endothelial cells). Put plainly: competition, 50 µM BRU-305 against 2% BRU-114 microbubbles (competitor) on HAEC, static.
Test [4] has the same target. Description: competition, 100 µM BRU-305 against 2% BRU-114 microbubbles (competitor) on HAEC, static.
Test [5] has the same target. Put plainly: competition, 200 µM BRU-305 against 2% BRU-114 microbubbles (competitor) on HAEC, static.
The target is the same in test [6]. Put plainly: competition, 50 µM BRU-306 against 2% BRU-114 microbubbles (competitor) on HAEC, static.
For test [7] the target is unchanged. Put plainly: competition, 200 µM BRU-306 against 2% BRU-114 microbubbles (competitor) on HAEC, static.
For test [8] the target is unchanged. Description: competition, 100 µM BRU-306 against 2% BRU-114 microbubbles (competitor) on HAEC, static.
Test [9] has the same target. Put plainly: microbubbles with 5% DPPE-GTKPPR on HAEC, static; cells treated with 0 ng/mL TNFα for 4 h.
The target is the same in test [10]. Description: microbubbles with 5% DPPE-GTKPPR on HAEC, static, after washing.
Test [11] has the same target. Put plainly: microbubbles with 5% DPPE-GTKPPR on HAEC, static; cells treated with 1 ng/mL TNFα for 4 h.
Test [12] shares this target. Description: microbubbles with 5% DPPE-GTKPPR on HAEC, static, no competitor (control).
Test [13] has the same target. Put plainly: microbubbles with 5% DPPE-GTKPPR on HAEC, static.
The target is the same in test [14]. Description: microbubbles with 10% BRU-114 on HAEC, static, no competitor.
The target is the same in test [15]. Put plainly: microbubbles with 1% DPPE-GTKPPR on HAEC, static, no competition.
For test [16] the target is unchanged. Description: microbubbles with 5% DPPE-GTKPPR on HAEC, static; cells treated with 10 ng/mL TNFα for 4 h.
For test [17], the target named is KB cells (human epidermoid carcinoma cell line). Description: microbubbles with 5% DPPE-GTKPPR on KB cells, static.
Test [18] concerns the target endothelial cell receptor on HAEC (human aortic endothelial cells). Put plainly: microbubbles with 2% BRU-114 on HAEC, static, no competitor, average of duplicates.
For test [19] the target is unchanged. Description: microbubbles with 1% BRU-114 on HAEC, static, no competitor.
Test [20] has the same target. Description: microbubbles with 5% BRU-114 on HAEC, static, no competitor.
Test [21] shares this target. Put plainly: microbubbles on HAEC, static, manual counting, 5% against 1% DPPE-GTKPPR.
The target is the same in test [22]. Put plainly: microbubbles with 5% DPPE-GTKPPR on HAEC, static, no competition.
The target in test [23] is endothelial cell receptor on RAEC (rabbit aortic endothelial cells). Description: microbubbles with 5% DPPE-GTKPPR on RAEC, static, no competitor.
For test [24], the target named is endothelial cell receptor on HAEC (human aortic endothelial cells). Description: microbubbles with 2% BRU-114 on HAEC, static, no competitor (control set to 100).
Test [25] shares this target. Put plainly: microbubbles with 5% DPPE-GTKPPR on HAEC, static, no competitor.
Test [26] has the same target. Description: microbubbles with 5% DPPE-GTKPPR on HAEC, static, no competitor (same control as in the 16th table).
Test [27] has the same target. Description: microbubbles with 5% DPPE-GTKPPR on HAEC, static; cells treated with 5 ng/mL TNFα for 4 h.
Test [28] shares this target. Description: microbubbles with 1% BRU-114 on HAEC, static, no competitor, average of duplicates.
The target is the same in test [29]. Put plainly: competition, 25 µM tuftsin against 1% BRU-114 microbubbles (competitor) on HAEC, static.
For test [30] the target is unchanged. Put plainly: competition, 100 µM tuftsin against 1% BRU-114 microbubbles (competitor) on HAEC, static.
Test [31] shares this target. Description: competition, 5 µM tuftsin against 1% BRU-114 microbubbles (competitor) on HAEC, static.
Test [32] shares this target. Put plainly: competition, 50 µM tuftsin against 1% BRU-114 microbubbles (competitor) on HAEC, static.
Test [33] has the same target. Put plainly: competition, 10 µM tuftsin against 1% BRU-114 microbubbles (competitor) on HAEC, static.
The target in test [34] is NP-1/Fc (Neuropilin-1/Fc, R&D Systems). Put plainly: competition with 250 pM ^125I-VEGF165 on NP-1/Fc-coated plates, 4° C., 2 h.
NP-1/Fc (Neuropilin-1/Fc, R&D Systems), sequence (Q9QWJ9 22-855): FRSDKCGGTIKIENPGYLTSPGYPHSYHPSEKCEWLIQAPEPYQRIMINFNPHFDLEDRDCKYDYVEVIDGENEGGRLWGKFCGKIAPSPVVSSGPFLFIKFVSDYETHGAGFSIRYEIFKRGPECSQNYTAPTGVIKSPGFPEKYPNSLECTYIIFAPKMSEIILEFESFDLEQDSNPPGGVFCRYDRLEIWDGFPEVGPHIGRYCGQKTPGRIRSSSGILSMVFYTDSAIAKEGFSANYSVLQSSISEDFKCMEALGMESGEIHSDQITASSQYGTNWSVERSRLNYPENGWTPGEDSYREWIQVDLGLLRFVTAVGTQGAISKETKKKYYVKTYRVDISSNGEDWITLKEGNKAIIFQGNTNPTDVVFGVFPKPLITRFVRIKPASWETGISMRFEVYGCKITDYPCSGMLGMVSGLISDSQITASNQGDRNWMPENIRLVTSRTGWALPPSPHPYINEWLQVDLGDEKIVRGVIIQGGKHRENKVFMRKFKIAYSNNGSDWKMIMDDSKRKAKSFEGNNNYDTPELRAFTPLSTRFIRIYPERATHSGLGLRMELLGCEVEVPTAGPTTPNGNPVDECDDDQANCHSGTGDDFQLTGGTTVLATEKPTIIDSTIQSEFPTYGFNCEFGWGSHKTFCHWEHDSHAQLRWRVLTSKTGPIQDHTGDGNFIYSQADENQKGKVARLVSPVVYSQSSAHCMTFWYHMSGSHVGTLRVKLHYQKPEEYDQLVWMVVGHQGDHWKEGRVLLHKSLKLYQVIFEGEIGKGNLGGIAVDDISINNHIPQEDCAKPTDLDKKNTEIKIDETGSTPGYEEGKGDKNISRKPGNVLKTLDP

B1: TKPPR-conjugated fluorescent beads (peptide)
peptide: TKPPR
modifications: also: coupled by EDAC to carboxylate-modified fluorescent FluoSpheres beads, many copies per bead
B1: the beads bound at 1.53 dynes/cm^2 in [1] turned out to be 86 beads. Moreover, the Integrated density of bound beads (arbitrary units) in test [2] came to 230.

B2: TKPPR tetramer BRU-326 (OG-(TKPPR)4) (peptide)
peptide: TKPPR-OH
modifications: not fully specified (N-terminus); printed as OG-(TKPPR)4; also: tetramer: four TKPPR arms on branched scaffold carrying one Oregon Green
Regarding B2, the IC50 in the test with VEGF receptors on HUVECs was 10 µM.

B3: Linear CTKPPRC (BRU-305) (peptide)
peptide: CTKPPRC
As to B3, the Bubbles Bound % (of control binding) is 97 % of control in test [3], 78 % of control in test [4] and 88 % of control in [5].

B4: Cyclic disulfide CTKPPRC (BRU-306) (peptide)
peptide: CTKPPRC
modifications: disulfide 1-7 (inferred)
Turning to B4, the Bubbles Bound % (of control binding) is 97 % of control in test [6], 99 % of control in [7] and 71 % of control in [8].

B5: GRGDSP-conjugated fluorescent beads (peptide)
peptide: GRGDSP
modifications: also: coupled by EDAC to carboxylate-modified fluorescent FluoSpheres beads
In test [2], B5 gave an Integrated density of bound beads (arbitrary units) of 28.6.

B6: DPPE-Glu-GTKPPR (BRU-114) in gas-filled microbubbles (peptide)
peptide: {DPPE′-Glutaryl}-GTKPPR-OH
modifications: also: built into phospholipid shell of gas-filled microbubbles
Take B6: the Bubbles Bound stood at 950 bubbles in test [9]; 7050 bubbles in test [10]; 1520 bubbles in [11]; 1250 bubbles in test [12]; 1860 bubbles in test [14]; 555 bubbles in [15]. The Bubbles Bound in test [16] is 1020 bubbles; in [18], 953 bubbles; in test [19], 1640 bubbles; in test [20], 2780 bubbles; in [22] it was 726 bubbles; in [26] it was 1250 bubbles. Also, the Bubbles Bound in test [27] came out at 1360 bubbles; in [28] it was 737 bubbles. This molecule displayed an HAEC bubble binding in test [13] of 1120 bubbles. The KB cell bubble binding in [17] was found to be 56 bubbles. In addition, in [21], the % more bubbles bound than with the 1% composition came out at 31%. The molecule further registered an RAEC bubbles bound in test [23] of 751 bubbles. The Bubbles Bound % (of control binding) in test [24] is 100 % of control. In [25], this molecule came in with an HAEC bubbles bound of 1420 bubbles.

B7: Tuftsin (TKPR) (peptide)
peptide: TKPR
Turning to B7, the Bubbles Bound in presence of competitor is 1170 bubbles in [29]; 556 bubbles in test [30]; 1150 bubbles in test [31]; 904 bubbles in test [32]; 976 bubbles in test [33]. The same molecule registered an IC50 in [34] of 280 µM.
